The values that follow come from article doi:10.1101/2022.11.10.512828.

Experiment [1] has as its target LS-αβICD, heteropentamer of two LS-αICD and three LS-βICD chains (Saccharomyces cerevisiae | rat) (UniProt P50861). Nature of the experiment: ITC.
Experiment [2] shares this target. Nature of the experiment: SEC.
For experiment [3] the target is unchanged. Nature of the experiment: SEC. This is another data set of the same source.
Experiment [4] has the same target. Nature of the experiment: SEC. This is another data set of the same source.
Experiment [5] has as its target LS-αICD chain of the co-expression construct (pETDuet1, first cloning site) (Saccharomyces cerevisiae | rat) (UniProt P50861). Nature of the experiment: densitometry of Coomassie-stained SDS-PAGE bands of the purified complex. Conditions: scale: βICD chains to 2 αICD chains in the pentamer.
Experiment [6] has as its target unmodified lumazine synthase from Saccharomyces cerevisiae (LS^wt) (Saccharomyces cerevisiae) (UniProt P50861). Description: SEC.
Experiment [7] has the same target. Nature of the experiment: AUC.

Read-outs that look alike come from different tables or passages of the source.

Regarding “full-length rat gephyrin splice variant rC4 (natural protein)”, in experiment [1], the Kd amounted to 490 nM and the stoichiometry N was 0.57. The amount of gephyrin bound in experiment [2] came to 4 nmol. Moreover, in experiment [3], the amount of gephyrin bound is 3 nmol, the percent of gephyrin bound stood at 75%, the stoichiometry N (gephyrin trimer per LS pentamer) was 1 and the stoichiometry N (gephyrin trimers to 3 LS pentamers) was 3. In experiment [4], this substance yielded a stoichiometry N (gephyrin trimers to 3 LS pentamers) of 4.
For “LS-βICD chain of the co-expression construct (pETDuet1, second cloning site) (from UniProt P50861 1-138; P50861 139-169)”, the stoichiometry N in experiment [5] is 3.
As for “unmodified lumazine synthase from Saccharomyces cerevisiae (LS^wt) (from UniProt P50861 2-169) (enzyme)”, the stoichiometry N in experiment [6] and in experiment [7] was 5 throughout.
“gephyrin E-domain (GephE) dimer (domain or fragment)”: in experiment [1], the Kd was 680 nM and the stoichiometry N is 0.41.
